Assay results taken from the supplement of paper PMC10567573.

B1: BRF1 (parent)
chain: CTACGSVLEDNIIVSEVQFVESSG
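Also: lentivirally expressed fusions sorted by FACS into six bins by GFP to DsRed ratio, PSI derived from sequencing read proportions per bin multiplied by bin number.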

Variants of: B1
Assay: protein stability index of a GFP-peptide fusion (GPS, HEK-293T) (PSI 1-6); higher = more stable
Details: c terminus: a fixed tail appended
CTACGSVLRDNIIVSEVQFVESSG gave a protein stability index of 3.02. Variant CTACGSVLSDNIIVSEVQFVESSG has a protein stability index of 2.85. In the case of CTACGSVLTDNIIVSEVQFVESSG, the protein stability index is reported as 2.55. In the case of CTACGSVLVDNIIVSEVQFVESSG, the protein stability index is reported as 2.26. In the case of CTACGSVLWDNIIVSEVQFVESSG, the protein stability index is reported as 1.83. Variant CTACGSVLYDNIIVSEVQFVESSG has a protein stability index of 2. In the case of CTACGSVLEANIIVSEVQFVESSG, the protein stability index is reported as 2.41. Work on CTACGSVLEENIIVSEVQFVESSG yielded a protein stability index of 3.38. In the case of CTACGSVLEGNIIVSEVQFVESSG, the protein stability index is reported as 1.84. With CTACGSVLEHNIIVSEVQFVESSG the protein stability index was 2.67. CTACGSVLEINIIVSEVQFVESSG showed a protein stability index of 3.2. Work on CTACGSVLEKNIIVSEVQFVESSG yielded a protein stability index of 3.43. CTACGSVLELNIIVSEVQFVESSG gave a protein stability index of 3.29. With CTACGSVLEMNIIVSEVQFVESSG the protein stability index was 2.94. CTACGSVLENNIIVSEVQFVESSG gave a protein stability index of 2.55. For CTACGSVLEPNIIVSEVQFVESSG, the protein stability index was 3.44. CTACGSVLEQNIIVSEVQFVESSG showed a protein stability index of 2.14. In the case of CTACGSVLERNIIVSEVQFVESSG, the protein stability index is reported as 3.89. For CTACGSVLESNIIVSEVQFVESSG, the protein stability index was 1.34. For CTACGSVLETNIIVSEVQFVESSG, the protein stability index was 1.79. Work on CTACGSVLEWNIIVSEVQFVESSG yielded a protein stability index of 1.22. CTACGSVLEYNIIVSEVQFVESSG showed a protein stability index of 2.24. For CTACGSVLEDAIIVSEVQFVESSG, the protein stability index was 1.54. CTACGSVLEDCIIVSEVQFVESSG showed a protein stability index of 1.74. For CTACGSVLEDDIIVSEVQFVESSG, the protein stability index was 2.84. Work on CTACGSVLEDEIIVSEVQFVESSG yielded a protein stability index of 2.19. Variant CTACGSVLEDFIIVSEVQFVESSG has a protein stability index of 1.89. CTACGSVLEDGIIVSEVQFVESSG showed a protein stability index of 2.96. CTACGSVLEDHIIVSEVQFVESSG showed a protein stability index of 2.12. CTACGSVLEDIIIVSEVQFVESSG showed a protein stability index of 1.14. Work on CTACGSVLEDKIIVSEVQFVESSG yielded a protein stability index of 4.01. Variant CTACGSVLEDLIIVSEVQFVESSG has a protein stability index of 2.98. For CTACGSVLEDMIIVSEVQFVESSG, the protein stability index was 1.05. Work on CTACGSVLEDPIIVSEVQFVESSG yielded a protein stability index of 2.91. With CTACGSVLEDQIIVSEVQFVESSG the protein stability index was 2.6. With CTACGSVLEDSIIVSEVQFVESSG the protein stability index was 2.42. CTACGSVLEDTIIVSEVQFVESSG showed a protein stability index of 2.44. With CTACGSVLEDVIIVSEVQFVESSG the protein stability index was 1.96. CTACGSVLEDWIIVSEVQFVESSG showed a protein stability index of 1.01. Work on CTACGSVLEDYIIVSEVQFVESSG yielded a protein stability index of 2.06. CTACGSVLEDNAIVSEVQFVESSG showed a protein stability index of 3.77. Variant CTACGSVLEDNCIVSEVQFVESSG has a protein stability index of 3.53. CTACGSVLEDNDIVSEVQFVESSG showed a protein stability index of 3.08. CTACGSVLEDNEIVSEVQFVESSG showed a protein stability index of 4. Work on CTACGSVLEDNFIVSEVQFVESSG yielded a protein stability index of 2.23. In the case of CTACGSVLEDNGIVSEVQFVESSG, the protein stability index is reported as 3.73. Variant CTACGSVLEDNHIVSEVQFVESSG has a protein stability index of 3.41. For CTACGSVLEDNKIVSEVQFVESSG, the protein stability index was 4.16. Variant CTACGSVLEDNLIVSEVQFVESSG has a protein stability index of 3.06. Work on CTACGSVLEDNMIVSEVQFVESSG yielded a protein stability index of 3.13. Work on CTACGSVLEDNNIVSEVQFVESSG yielded a protein stability index of 4.8. CTACGSVLEDNPIVSEVQFVESSG showed a protein stability index of 3.55. In the case of CTACGSVLEDNQIVSEVQFVESSG, the protein stability index is reported as 4.35. Work on CTACGSVLEDNRIVSEVQFVESSG yielded a protein stability index of 4.29. CTACGSVLEDNSIVSEVQFVESSG showed a protein stability index of 3.95. With CTACGSVLEDNTIVSEVQFVESSG the protein stability index was 3.88. For CTACGSVLEDNVIVSEVQFVESSG, the protein stability index was 2.99. In the case of CTACGSVLEDNWIVSEVQFVESSG, the protein stability index is reported as 2.39. With CTACGSVLEDNYIVSEVQFVESSG the protein stability index was 3.15. CTACGSVLEDNIAVSEVQFVESSG showed a protein stability index of 3.96. Work on CTACGSVLEDNICVSEVQFVESSG yielded a protein stability index of 4.75. Work on CTACGSVLEDNIDVSEVQFVESSG yielded a protein stability index of 3.13. CTACGSVLEDNIEVSEVQFVESSG showed a protein stability index of 4.11. In the case of CTACGSVLEDNIFVSEVQFVESSG, the protein stability index is reported as 3.08. CTACGSVLEDNIGVSEVQFVESSG gave a protein stability index of 3.61. For CTACGSVLEDNIHVSEVQFVESSG, the protein stability index was 3.84. CTACGSVLEDNIKVSEVQFVESSG showed a protein stability index of 3.89. Work on CTACGSVLEDNILVSEVQFVESSG yielded a protein stability index of 2.79. CTACGSVLEDNIMVSEVQFVESSG showed a protein stability index of 3.97. In the case of CTACGSVLEDNINVSEVQFVESSG, the protein stability index is reported as 3.79. CTACGSVLEDNIPVSEVQFVESSG gave a protein stability index of 4.25. CTACGSVLEDNIQVSEVQFVESSG gave a protein stability index of 4.01. CTACGSVLEDNIRVSEVQFVESSG gave a protein stability index of 3.92. CTACGSVLEDNISVSEVQFVESSG showed a protein stability index of 4.05. With CTACGSVLEDNITVSEVQFVESSG the protein stability index was 3.56. With CTACGSVLEDNIIASEVQFVESSG the protein stability index was 3.63. For CTACGSVLEDNIICSEVQFVESSG, the protein stability index was 2.64. Variant CTACGSVLEDNIIDSEVQFVESSG has a protein stability index of 4.33. For CTACGSVLEDNIIESEVQFVESSG, the protein stability index was 4.28. Variant CTACGSVLEDNIIFSEVQFVESSG has a protein stability index of 2.57. CTACGSVLEDNIIGSEVQFVESSG gave a protein stability index of 3.54. Variant CTACGSVLEDNIIHSEVQFVESSG has a protein stability index of 3.94. Work on CTACGSVLEDNIIISEVQFVESSG yielded a protein stability index of 2.68. CTACGSVLEDNIIKSEVQFVESSG gave a protein stability index of 3.53. CTACGSVLEDNIILSEVQFVESSG showed a protein stability index of 2.78. CTACGSVLEDNIINSEVQFVESSG showed a protein stability index of 4.23. Work on CTACGSVLEDNIIPSEVQFVESSG yielded a protein stability index of 3.96. With CTACGSVLEDNIIQSEVQFVESSG the protein stability index was 4.25. CTACGSVLEDNIIRSEVQFVESSG gave a protein stability index of 3.89. With CTACGSVLEDNIISSEVQFVESSG the protein stability index was 3.49. For CTACGSVLEDNIITSEVQFVESSG, the protein stability index was 3.95. With CTACGSVLEDNIIWSEVQFVESSG the protein stability index was 2.14. In the case of CTACGSVLEDNIIYSEVQFVESSG, the protein stability index is reported as 2.73. With CTACGSVLEDNIIVAEVQFVESSG the protein stability index was 3.65.
